Measured values from IntAct's records for PubMed 17360471.

Molecular target: sgk1_human SGK1 (UniProt O00141)
Sequence (O00141 whole entry): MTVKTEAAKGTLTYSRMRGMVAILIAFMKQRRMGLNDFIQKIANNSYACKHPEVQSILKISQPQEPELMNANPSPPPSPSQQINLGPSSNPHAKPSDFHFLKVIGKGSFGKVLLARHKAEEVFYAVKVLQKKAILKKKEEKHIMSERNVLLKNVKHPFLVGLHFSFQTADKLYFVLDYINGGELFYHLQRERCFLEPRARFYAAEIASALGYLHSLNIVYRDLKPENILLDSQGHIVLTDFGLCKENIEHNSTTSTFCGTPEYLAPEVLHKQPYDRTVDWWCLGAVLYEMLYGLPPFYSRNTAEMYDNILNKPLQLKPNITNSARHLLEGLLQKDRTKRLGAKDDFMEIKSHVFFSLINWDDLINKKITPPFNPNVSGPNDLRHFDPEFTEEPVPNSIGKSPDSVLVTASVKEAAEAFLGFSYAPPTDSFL

For “Serine/threonine-protein kinase WNK4 (Mus musculus), Q80UE6 Q562E”, the “effect of a mutation on the interaction” value was “decreasing interaction strength”.
“Serine/threonine-protein kinase WNK4 (Mus musculus), Q80UE6 S1169D” was tested, and the “effect of a mutation on the interaction” value was “decreasing interaction strength”.
